Data set [1] concerns the molecule itself. As to the kind of experiment: SEC; gel filtration of each purified recombinant protein, compared with molecular mass standards. (Size exclusion chromatography separates by hydrodynamic size, large species first.)
For data set [2], the target named is T1, Rel-49, the C-terminal IkB domain of Relish, N-terminal StrepTagII and C-terminal His tag (Drosophila melanogaster).
T1 construct: Rel-49, the C-terminal IkB fragment that is left after cleavage of compound Relish (Rel-110), Drosophila, GenBank AAF54333; Cloned without a stop codon into pET51-EK-LIC; source: E. coli BL21 (DE3), purified
T1 sequence (Q94527 whole entry, looked up): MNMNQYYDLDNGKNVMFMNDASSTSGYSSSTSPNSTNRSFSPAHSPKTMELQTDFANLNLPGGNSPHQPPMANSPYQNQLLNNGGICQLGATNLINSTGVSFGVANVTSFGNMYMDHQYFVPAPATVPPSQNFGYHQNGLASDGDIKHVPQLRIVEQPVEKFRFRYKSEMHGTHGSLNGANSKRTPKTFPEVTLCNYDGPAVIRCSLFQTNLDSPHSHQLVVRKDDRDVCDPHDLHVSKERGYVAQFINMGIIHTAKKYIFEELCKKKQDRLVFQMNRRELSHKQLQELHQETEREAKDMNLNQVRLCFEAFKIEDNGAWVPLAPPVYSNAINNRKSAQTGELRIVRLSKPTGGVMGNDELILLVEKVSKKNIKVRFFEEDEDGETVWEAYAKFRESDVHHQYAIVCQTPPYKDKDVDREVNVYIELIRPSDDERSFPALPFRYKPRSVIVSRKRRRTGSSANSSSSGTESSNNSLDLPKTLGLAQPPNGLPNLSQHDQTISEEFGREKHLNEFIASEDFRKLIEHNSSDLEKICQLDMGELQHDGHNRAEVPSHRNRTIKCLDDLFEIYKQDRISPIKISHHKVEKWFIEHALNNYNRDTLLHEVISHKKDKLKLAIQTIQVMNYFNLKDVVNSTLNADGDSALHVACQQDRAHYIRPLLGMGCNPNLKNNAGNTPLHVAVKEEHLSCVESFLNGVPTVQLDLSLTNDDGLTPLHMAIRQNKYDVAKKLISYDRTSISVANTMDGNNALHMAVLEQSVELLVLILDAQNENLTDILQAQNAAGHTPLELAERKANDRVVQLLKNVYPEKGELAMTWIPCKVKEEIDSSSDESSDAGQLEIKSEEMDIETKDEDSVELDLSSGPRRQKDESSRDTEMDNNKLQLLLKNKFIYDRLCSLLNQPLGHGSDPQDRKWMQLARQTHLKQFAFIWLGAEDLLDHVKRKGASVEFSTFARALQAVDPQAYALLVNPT
Description: SPR; Biacore 3000, room temperature; IkB or Ank immobilised on CM5 by amine coupling (about 5500 RU); Rel homodimer as analyte, kinetic titration, five doubling injections (typically 160 nM to 2.56 uM), 60 or 90 s, 30 uL/min; 10 mM HEPES pH 7.4, 150 mM NaCl, 3.4 mM EDTA, 0.005% P20; 1:1 Langmuir fit. As to conditions: both partners purified. A general note: In SPR one partner is held on a chip, and binding of the other changes the refractive index at the surface.

Data set [3] has as its target T2, Ank-H4 of Microplitis demolitor bracovirus, full length, N-terminal His tag (Microplitis demolitor bracovirus (MdBV)).
T2 construct: Ank-H4, Microplitis demolitor bracovirus (MdBV), GenBank AY875685; consists of only an ankyrin repeat domain; amplified from MdBV genomic DNA; pET-30-EK-LIC; source: E. coli BL21 (DE3), purified (Ni-NTA); not shown: His6, N-terminal, kept
Described as above. As to conditions: both partners purified.

The target of data set [4] is T3, Dif, truncated (RHD, NLS and 20 additional C-terminal residues), StrepTagII-tagged (Drosophila melanogaster).
T3 chain: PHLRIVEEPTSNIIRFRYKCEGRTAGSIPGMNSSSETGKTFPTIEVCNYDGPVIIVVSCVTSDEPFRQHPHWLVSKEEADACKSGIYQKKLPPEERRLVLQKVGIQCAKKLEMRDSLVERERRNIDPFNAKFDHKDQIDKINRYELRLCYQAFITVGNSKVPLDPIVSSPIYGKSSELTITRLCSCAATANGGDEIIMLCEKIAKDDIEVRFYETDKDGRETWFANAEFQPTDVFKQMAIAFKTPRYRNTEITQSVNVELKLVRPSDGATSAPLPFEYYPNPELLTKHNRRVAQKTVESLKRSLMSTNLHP
As to the kind of experiment: SEC; gel filtration of each purified recombinant protein, compared with molecular mass standards. As to conditions: both partners purified.

For data set [5], the target named is T3, Dif, truncated (RHD, NLS and 20 …). As to the kind of experiment: SPR; Biacore 3000, room temperature; Dif immobilised on CM5 by amine coupling, Cactus as analyte (Table 1); kinetic titration; 10 mM HEPES pH 7.4, 150 mM NaCl, 3.4 mM EDTA, 0.005% P20; 1:1 Langmuir fit. As to conditions: both partners purified.
In data set [6] the target is T4, Cactus, truncated form consisting of its ankyrin repeat domain, N-terminal His tag (Drosophila melanogaster).
T4 chain: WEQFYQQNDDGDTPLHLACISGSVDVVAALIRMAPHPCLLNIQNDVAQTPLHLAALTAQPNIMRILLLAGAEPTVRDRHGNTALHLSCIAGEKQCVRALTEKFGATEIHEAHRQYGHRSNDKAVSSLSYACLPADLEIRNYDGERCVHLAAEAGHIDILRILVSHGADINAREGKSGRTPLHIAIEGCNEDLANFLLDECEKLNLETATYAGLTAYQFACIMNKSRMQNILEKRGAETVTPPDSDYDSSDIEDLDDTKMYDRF
Description: SPR; Biacore 3000, room temperature; IkB or Ank immobilised on CM5 by amine coupling (about 5500 RU); Rel homodimer as analyte, kinetic titration, five doubling injections (typically 160 nM to 2.56 uM), 60 or 90 s, 30 uL/min; 10 mM HEPES pH 7.4, 150 mM NaCl, 3.4 mM EDTA, 0.005% P20; 1:1 Langmuir fit. As to conditions: both partners purified.

T2 sequence (Q5I144 whole entry, the tested form may be a part): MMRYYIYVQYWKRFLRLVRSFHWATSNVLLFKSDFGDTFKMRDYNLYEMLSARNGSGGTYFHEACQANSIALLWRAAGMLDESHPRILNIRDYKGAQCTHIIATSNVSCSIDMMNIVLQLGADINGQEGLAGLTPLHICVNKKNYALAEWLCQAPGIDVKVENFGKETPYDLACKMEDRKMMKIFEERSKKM

B1: Dif, truncated (RHD, NLS and 20 additional C-terminal residues), N-terminal thioredoxin fusion (domain or fragment)
chain: PHLRIVEEPTSNIIRFRYKCEGRTAGSIPGMNSSSETGKTFPTIEVCNYDGPVIIVVSCVTSDEPFRQHPHWLVSKEEADACKSGIYQKKLPPEERRLVLQKVGIQCAKKLEMRDSLVERERRNIDPFNAKFDHKDQIDKINRYELRLCYQAFITVGNSKVPLDPIVSSPIYGKSSELTITRLCSCAATANGGDEIIMLCEKIAKDDIEVRFYETDKDGRETWFANAEFQPTDVFKQMAIAFKTPRYRNTEITQSVNVELKLVRPSDGATSAPLPFEYYPNPELLTKHNRRVAQKTVESLKRSLMSTNLHPSKQV
In the case of B1, the stoichiometry N (as a rule, a count of units in the complex or per binding partner) in data set [1] was determined as 2.

B2: Dif, truncated (RHD, NLS and 20 additional C-terminal residues), StrepTagII-tagged (domain or fragment)
chain: PHLRIVEEPTSNIIRFRYKCEGRTAGSIPGMNSSSETGKTFPTIEVCNYDGPVIIVVSCVTSDEPFRQHPHWLVSKEEADACKSGIYQKKLPPEERRLVLQKVGIQCAKKLEMRDSLVERERRNIDPFNAKFDHKDQIDKINRYELRLCYQAFITVGNSKVPLDPIVSSPIYGKSSELTITRLCSCAATANGGDEIIMLCEKIAKDDIEVRFYETDKDGRETWFANAEFQPTDVFKQMAIAFKTPRYRNTEITQSVNVELKLVRPSDGATSAPLPFEYYPNPELLTKHNRRVAQKTVESLKRSLMSTNLHP
modifications: homodimer by gel filtration; StrepTagII left out. Limits: RHD start 78 and NLS end 368 from UniProt features, plus 20 residues; exact limits are only in Figure 1A
As for B2, in data set [2], the Kd (usually the concentration at which binding is half-saturated) stood at 1840 nM; the koff (usually a measure of how fast the partners let go of each other) amounted to 0.000966 s⁻¹; the kon – broadly, the rate constant with which the complex forms – stood at 524 M⁻¹ s⁻¹. For the same molecule, in data set [3], binding was put at a Kd of 581 nM, the koff was 0.00384 s⁻¹ and the kon was 6620 M⁻¹ s⁻¹.

B3: Dif, truncated (RHD, NLS and 20 additional C-terminal residues), StrepTagII-tagged (domain or fragment)
chain: PHLRIVEEPTSNIIRFRYKCEGRTAGSIPGMNSSSETGKTFPTIEVCNYDGPVIIVVSCVTSDEPFRQHPHWLVSKEEADACKSGIYQKKLPPEERRLVLQKVGIQCAKKLEMRDSLVERERRNIDPFNAKFDHKDQIDKINRYELRLCYQAFITVGNSKVPLDPIVSSPIYGKSSELTITRLCSCAATANGGDEIIMLCEKIAKDDIEVRFYETDKDGRETWFANAEFQPTDVFKQMAIAFKTPRYRNTEITQSVNVELKLVRPSDGATSAPLPFEYYPNPELLTKHNRRVAQKTVESLKRSLMSTNLHP
modifications: homodimer by gel filtration; StrepTagII left out. Limits: RHD start 78 and NLS end 368 from UniProt features, plus 20 residues; exact limits are only in Figure 1A / homodimer by gel filtration …
For the molecule B3, the “stoichiometry N” value in data set [4] is 2.

B4: Cactus, truncated form consisting of its ankyrin repeat domain, N-terminal His tag (domain or fragment)
chain: WEQFYQQNDDGDTPLHLACISGSVDVVAALIRMAPHPCLLNIQNDVAQTPLHLAALTAQPNIMRILLLAGAEPTVRDRHGNTALHLSCIAGEKQCVRALTEKFGATEIHEAHRQYGHRSNDKAVSSLSYACLPADLEIRNYDGERCVHLAAEAGHIDILRILVSHGADINAREGKSGRTPLHIAIEGCNEDLANFLLDECEKLNLETATYAGLTAYQFACIMNKSRMQNILEKRGAETVTPPDSDYDSSDIEDLDDTKMYDRF
modifications: Limits come from the Table S1 cactus primers. The forward primer, after the LIC extension …, encodes WEQFYQQN. The reverse primer encodes DTKMYDRF followed by a stop. Positions were …
As for B4, in data set [5], the affinity, expressed as Kd, was 110 nM; the koff is 0.00578 s⁻¹; the kon came to 52500 M⁻¹ s⁻¹.

B5: Dorsal, truncated (RHD, NLS and 20 additional C-terminal residues), StrepTagII-tagged (domain or fragment)
chain: PYVKITEQPAGKALRFRYECEGRSAGSIPGVNSTPENKTYPTIEIVGYKGRAVVVVSCVTKDTPYRPHPHNLVGKEGCKKGVCTLEINSETMRAVFSNLGIQCVKKKDIEAALKAREEIRVDPFKTGFSHRFQPSSIDLNSVRLCFQVFMESEQKGRFTSPLPPVVSEPIFDKKAMSDLVICRLCSCSATVFGNTQIILLCEKVAKEDISVRFFEEKNGQSVWEAFGDFQHTDVHKQTAITFKTPRYHTLDITEPAKVFIQLRRPSDGVTSEALPFEYVPMDSDPAHLRRKRQKTGGDPMHLLLQQQQKQQLQN
modifications: Limits come from the Table S1 cactus primers. The forward primer, after the LIC extension …, encodes WEQFYQQN. The reverse primer encodes DTKMYDRF followed by a stop. Positions were …
In data set [6], B5 displayed a Kd of 195 nM, a koff of 0.00193 s⁻¹ and a kon of 9890 M⁻¹ s⁻¹.

B6: Relish, truncated (RHD, NLS and 20 additional C-terminal residues), StrepTagII-tagged (domain or fragment)
chain: KHVPQLRIVEQPVEKFRFRYKSEMHGTHGSLNGANSKRTPKTFPEVTLCNYDGPAVIRCSLFQTNLDSPHSHQLVVRKDDRDVCDPHDLHVSKERGYVAQFINMGIIHTAKKYIFEELCKKKQDRLVFQMNRRELSHKQLQELHQETEREAKDMNLNQVRLCFEAFKIEDNGAWVPLAPPVYSNAINNRKSAQTGELRIVRLSKPTGGVMGNDELILLVEKVSKKNIKVRFFEEDEDGETVWEAYAKFRESDVHHQYAIVCQTPPYKDKDVDREVNVYIELIRPSDDERSFPALPFRYKPRSVIVSRKRRRTGSSANSSSSGTESSNNSLD
modifications: Limits come from the Table S1 cactus primers. The forward primer, after the LIC extension …, encodes WEQFYQQN. The reverse primer encodes DTKMYDRF followed by a stop. Positions were …
In data set [6], B6 registered a Kd of 2190 nM, a koff of 0.00241 s⁻¹ and a kon of 1100 M⁻¹ s⁻¹.

These data come from publication PMC3359993, “Polydnavirus Ank Proteins Bind NF-κB Homodimers and Inhibit Processing of Relish” (PLoS Pathogens, 2012).
